Experimental data: patent US12545745B2, “Method for treating a degenerative neurological disorders comprising administering ASM inhibitor” (KYUNGPOOK NATIONAL UNIVERSITY INDUSTRY-ACADEMIC COOPERATION …, priority 2013, dated 2026)

How the values were obtained:
ASM = molecular target: T1, ASM (Mus musculus, UniProt Q04519); test: ASM activity in plasma of depression-induced (RSD stress) mice; type: in vivo; conditions: 50 mg/kg i.p. twice weekly for 4 weeks prior to induction, vs PBS, FIG. 58B
T1 construct: from tissue; host or cells: mouse serum/plasma and brain tissue (APP/PS1, RSD-stressed C57BL/6, FUS R521C mice)
T1 sequence (Q04519 45-627): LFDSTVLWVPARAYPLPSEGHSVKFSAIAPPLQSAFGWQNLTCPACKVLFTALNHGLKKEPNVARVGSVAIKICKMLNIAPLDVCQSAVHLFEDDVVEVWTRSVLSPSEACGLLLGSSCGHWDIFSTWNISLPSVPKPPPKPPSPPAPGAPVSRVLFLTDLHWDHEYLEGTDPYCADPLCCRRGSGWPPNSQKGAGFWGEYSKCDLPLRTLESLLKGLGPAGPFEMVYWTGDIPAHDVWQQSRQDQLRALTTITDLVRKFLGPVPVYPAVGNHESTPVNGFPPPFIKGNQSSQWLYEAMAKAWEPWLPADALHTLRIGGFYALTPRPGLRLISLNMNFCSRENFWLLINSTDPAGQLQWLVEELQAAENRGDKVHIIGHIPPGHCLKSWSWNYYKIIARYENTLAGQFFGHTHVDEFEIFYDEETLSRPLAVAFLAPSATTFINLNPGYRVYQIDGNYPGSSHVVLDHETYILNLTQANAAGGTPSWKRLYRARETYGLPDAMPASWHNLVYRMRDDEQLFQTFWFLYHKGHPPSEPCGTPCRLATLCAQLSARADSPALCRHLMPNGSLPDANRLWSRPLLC
Method: The concentration level of ASM was measured as follows. Specifically, 3μ ? of mouse serum, brain tissue and fibroblast samples were mixed with ASM activity buffer and stored at 37° C. 114 μ ? of ethanol was added to terminate the hydrolysis reaction, followed by centrifugation. 30 μ ? of supernatant was transferred to a glass vial, of which 5 μ ? was applied to the UPLC system. The ASM concentration levels were quantified by comparison with sphingomyelin and Bodipy (aminoacetaldehyde) conjugated with ceramide. The extraction and quantification of the sphingomyelin and ceramide was carried out by extracting and drying the lipids from the sample according to a known conventional method, and resuspending the dried lipid extract to 25 μl of 0.2% Igepal CA-630 (Sigma-Aldrich), and the concentration levels of each lipid were quantitated using the UPLC system. […]
The concentration level of ASM was measured as follows. […] The ASM concentration levels were quantified by comparison with sphingomyelin and Bodipy (aminoacetaldehyde) conjugated with ceramide. The extraction and quantification of the sphingomyelin and ceramide was carried out by extracting and drying the lipids from the sample according to a known conventional method, and resuspending the dried lipid extract to 25 μl of 0.2% Igepal CA-630 (Sigma-Aldrich), and the concentration levels of each lipid were quantitated using the UPLC system.

astrocytes and microglia = test: Neuroinflammation in brain of APP/PS1 mice (GFAP, Iba-1 staining, cytokine real-time PCR); type: in vivo, mouse; conditions: cerebral medulla and hippocampus, vs PBS
Method: After fixing the cerebral and hippocampal tissues of the mice, 0.5% thioflavin S (Sigma-Aldrich), anti-20G10 antibodies (mouse, 1:1000) against Aβ42, anti-G30 antibodies (rabbit, […]) against Aβ40, anti-GFAP antibodies (rabbit, 1:500, DAKO), or anti-Iba-1 antibodies (rabbit, 1:500, Wako) were co-cultured. The tissues were analyzed using a laser scanning confocal microscope equipped with Fluoview SV1000 imaging software (Olympus FV1000, Japan) or an Olympus BX51 microscope. Percentage of stained area to total tissue area was quantified and analyzed using Metamorph software (Molecular Devices).
To quantify the expression levels of inflammatory cytokines (TNF-α, […] and IL-6), real-time quantitative PCR was used. […] Also, using Corbett research RG-6000 real-time PCR instrument, real-time quantitative PCR was performed with repeated 40 cycle (one cycle consisting of 95° C., 10 minutes; 95° C., 10 seconds; 58° C., 15 seconds; 72° C., 20 seconds). […]
After fixing the mouse brain and hippocampus, 0.5% thioflavin S (Sigma-Aldrich), anti-GFAP (rabbit, 1:500, DAKO), and anti-Iba-1 (rabbit, 1:500, WAKO) were co-cultured together. The regions were analyzed using a laser scanning confocal microscope equipped with Fluoview SV1000 imaging software (Olympus FV1000, Japan) or an Olympus BX51 microscope. […]

B1: ASM-ab 23A12C3: self-made monoclonal ASM antibody, Koma biotech; heavy chain SEQ ID NO. 29, light chain SEQ ID NO. 30 (antibody)
heavy: MGWSWIFLFLLSGTAGVHSEVQLQQSGPVLVKPGASVKMSCKASGYTFTDYYMNWVKQSHGKSLEWIGVINPYNDGTSYNQKFKGKATLTVDKSSSTAYMELNSLTSEDSAVYYCAREKLYYYGRDYAMDYWGQGTSVTVSSAKTTPPSVYPLAPGSAAQTNSMVTLGCLVKGYFPEPVTVTWNSGSLSSGVHTFPAVLQSDLYTLSSSVTVPSSTWPSQTVTCNVAHPASSTKVDKKIVPRDCGCKPCICTVPEVSSVFIFPPKPKDVLTITLTPKVTCVVVDISKDDPEVQFSWFVDDVEVHTAQTKPREEQINSTFRSVSELPIMHQDWLNGKEFKCRVNSAAFPAPIEKTISKTKGRPKAPQVYTIPPPKEQMAKDKVSLTCMITNFFPEDITVEWQWNGQPAENYKNTQPIMDTDGSYFVYSKLNVQKSNWEAGNTFTCSVLHEGLHNHHTEKSLSHSPGK
light: MSSAQFLGLLLLCFQGTRCDIQMTQTTSSLSASLGDRVTISCRSSQDISNYLNWCQQKPDGTVKLLIYYTSRLHSGVPSRFSGSGSGTDYSLTISNLEQEDIATYFCQQDNTLPYTFGGGTKLEIKRADAAPTVSIFPPSSEQLTSGGASVVCFLNNFYPKDINVKWKIDGSERQNGVLNSWTDQDSKDSTYSMSSTLTLTKDEYERHNSYTCEATHKTSTSPIVKSFNRNEC
modifications: 23A12C3_Heavy chain; 23A12C3_Light chain
notes: self-made monoclonal ASM antibody, Koma biotech; 30
B1 was tested, and the “level of ASM activity in the plasma” value (ASM) was “significantly low”, the “activity of microglia (Iba-1)” value (astrocytes and microglia; FIG. 54A) was “significantly reduced” and the “activity of astrocytes (GFAP)” value (astrocytes and microglia; FIG. 54B) was “significantly reduced”.
